For data set [1], the target named is T1, PDGF-BB (platelet-derived growth factor B-chain homodimer) (UniProt P01127 82-190). Put plainly: microbead sandwich assay without RCA.
Data set [2] deals with T1, PDGF-BB (platelet-derived growth factor …). Put plainly: optical diffraction sandwich assay with RCA and microbeads.

The results in this text go back to publication PMC2818592.

T1 sequence (P01127 82-190): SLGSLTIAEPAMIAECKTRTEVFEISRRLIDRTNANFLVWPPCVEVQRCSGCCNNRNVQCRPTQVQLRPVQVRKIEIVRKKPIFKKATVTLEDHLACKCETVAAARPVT

B1: capture aptamer (anti-PDGF-BB) (structured_DNA)
DNA: TACTCAGGGCACTGCAAGCAATTGTGGTCCCAATGGGCTGAGTATTTTTT
As for B1, the binding result in data set [1] was “binds”.

B2: aptamer-primer complex (anti-PDGF-BB aptamer with 3' RCA primer) (structured_DNA)
DNA: TACTCAGGGCACTGCAAGCAATTGTGGTCCCAATGGGCTGAGTATTTTTTTTGTCCGTGCTAGAAGGAAACAGTTAC
B2: the binding result in data set [2] was “binds”.
